{
  "source": "patent US20060275317A1",
  "about": "“Vaccine compositions for prevention of chronic and infectious diseases” (Biokit S.A., priority 2003, published 2006)",
  "molecules": {"B1": {"name": "GST-Tp47: control fusion protein of GST and T. pallidum Tp47 antigen (protein)", "chain": "CGSSHHETHYGYATLSYADYWAGELGQSRDVLLAGNAEADRAGDLDAGMFDAVSRATHGHGAFRQQFQYAVEVLGEKVLSKQETEDSRGRKKWEYETDPSVTKMVRASASFQDLGEDGEIKFEAVEGAVALADRASSFMVDSEEYKITNVKVHGMKFVPVAVPHELKGIAKEKFHFVEDSRVTENTNGLKTMLTEDSFSARKVSSMESPHDLVVDTVGTGYHSRFGSDAEASVMLKRADGSELSHREFIDYVMNFNTVRYDYYGDDASYTNLMASYGTKHSADSWWKTGRVPRISCGINYGFDRFKGSGPGYYRLTLIANGYRDVVADVRFLPKYEGNIDIGLKGKVLTIGGADAETLMDAAVDVFADGQPKLVSDQAVSLGQNVLSADFTPGTEYTVEVRFKEFGSVRAKVVAQ", "modifications": "left off: a dimerising Fc or GST", "notes": "control fusion protein of GST and T. pallidum Tp47 antigen"}, "B2": {"name": "E. coli Ivy: Escherichia coli inhibitor of vertebrate lysozyme (P45502) (protein)", "chain": "QDDLTISSLAKGETTKAAFNQMVQGHKLPAWVMKGGTYTPAQTVTLGDETYQVMSACKPHDCGSQRIAVMWSEKSNQMTGLFSTIDEKTSQEKLTWLNVNDALSIDGKTVLFAALTGSLENHPDGFNFK"}, "B3": {"name": "human lysozyme: human lysozyme (NP_000230); breast milk (Sigma) or recombinant (Ventria) depending on the example (protein)", "chain": "KVFERCELARTLKRLGMDGYRGISLANWMCLAKWESGYNTRATNYNAGDRSTDYGIFQINSRYWCNDGKTPGAVNACHLSCSALLQDNIADAVACAKRVVRDPQGIRAWVAWRNRCQNRDVRQYVQGCGV"}, "B4": {"name": "Tp17-HIS: recombinant mature Tp17 (residues 23 to 156) with histidine tail, expressed in E. coli EcBK633 (protein)", "chain": "VSCTTVCPHAGKAKAEKVECALKGGIFRGTLPAADCPGIDTTVTFNADGTAQKVELALEKKSAPSPLTYRGTWMVREDGIVELSLVSSEQSKAPHEKELYELIDSNSVRYMGAPGAGKPSKEMAPFYVLKKTKK", "modifications": "left off: small tags and cut ends", "notes": "recombinant mature Tp17 (residues 23 to 156) with histidine tail, expressed in E. coli EcBK633"}},
  "key": {"[1]": {"system": "Micrococcus lysodeikticus", "conditions": "pH 6.24, 25° C, Micrococcus lysodeikticus substrate; cited from earlier work"}, "human lysozyme [2]": {"system": "human lysozyme", "assay": "POD-labeled human lysozyme binding to immobilized β-APP forms (spot blot)", "conditions": "10 μg spotted; POD-HuLYS diluted 1/1000", "description": "To test whether the β-APP protein binds huLYS, we performed lysozyme binding assays using purified, recombinant forms of β-APP. Both sAPPα (product number: S9564) and sAPPα (302-612) (product number: S8065) were purchased from Sigma-Aldrich (Tres cantos, Madrid, Spain). 10 μg of each protein was spotted onto a Nytran membrane (Scleicher & Schüell, Dassel, Germany). Non-specific adsorption sites were blocked by incubation for one hour in TBST-milk. After three washes with TBST, the membrane was incubated for one hour with horse radish peroxidase (POD)-labeled human lysozyme diluted 1/1000 in TBST-milk. Next, the membrane was washed three times, for 5 minutes each wash, with TBST. Staining was performed by adding 5 ml of POD chromogenic substrate (TMB, product number: T0565, Sigma). […] Moreover, the β-APP/huLYS protein complex likely serves as a diagnostic marker of Alzheimer's disease."}, "human lysozyme [3]": {"system": "human lysozyme", "assay": "Far Western blot lysozyme-protein interaction assay", "type": "binding", "conditions": "1, 5, 10 μg immobilized lysozyme; washes with 0.05% Tween 20", "description": "(§1) In order to test this hypothesis, a Far-Western blot lysozyme-protein interaction assay was performed. The assay is summarized in FIG. 5 and comprises generally the following three steps: (1) immobilization of purified lysozyme onto a membrane; (2) probing of the membrane with a ligand likely to bind directly to the lysozyme; and (3) immunodetection of the bound lysozyme-ligand. A detailed experimental procedure is presented below.\n(§2) Purified chicken egg white lysozyme and human breast milk lysozyme were purchased from Sigma-Aldrich (Madrid, Spain). Two series of aliquot fractions containing 1 μg, 5 μg, and 10 μg of purified lysozyme and a protein molecular weight marker (SeeBlue Plus II™, Invitrogen SA, Barcelona, Spain) were separated electrophoretically through a 4-12% SDS-PAGE gel using the conditions recommended by the supplier (Invitrogen). The gel was then processed for Western blotting as described in Sambrook et al. (1989) according to art known methods, and the proteins were electro-transferred to an Immobilon™ P PVDF membrane (Millipore Corp., Bedford, Mass.). The presence of lysozyme immobilized onto the PVDF membrane was assessed by staining for 1 minute with Ponceau S stain (Sigma-Aldrich, Madrid, Spain), and then destained by vigorous washing for 5 minutes with desionized water. The membrane was divided in two, each portion containing a protein ladder and three quantities of chicken or human lysozyme (1 μg, 5 μg and 10 μg per lane). Each membrane was then incubated for 16 hours at 4° C. in 5 ml of TBST (10 mM Tris-HCl, pH 8.0, 150 mM NaCl, 0.05% weight/vol. Tween 20™,) supplemented with 5% (weight/vol.) of non-fat skimmed dried SVELTESSE™milk (NESTLÉ, ESPAÑA, Barcelona, Spain) (to make TBST-milk). […]"}, "chicken lysozyme [4]": {"biological_target": "T1, chicken lysozyme (Gallus gallus, UniProt P00698)", "T1 sequence (P00698 19-147)": "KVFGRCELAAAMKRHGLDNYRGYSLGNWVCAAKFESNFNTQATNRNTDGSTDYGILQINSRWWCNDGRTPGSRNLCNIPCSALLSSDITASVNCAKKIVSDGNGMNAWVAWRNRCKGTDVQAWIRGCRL", "assay": "Far Western blot lysozyme-protein interaction assay", "type": "binding", "conditions": "1, 5, 10 μg immobilized lysozyme; washes with 0.05% Tween 20", "description": "as §1, §2"}, "human lysozyme [5]": {"system": "human lysozyme", "assay": "Lysozyme inhibition assay (EnzCheck, fluorescein-labeled Micrococcus lysodeikticus)", "type": "biochemical", "description": "(§3) To test this hypothesis, the antibacterial activity of both human and chicken lysozyme, in the presence or absence of GST-Tp17, was assayed using an EnzCheck® lysozyme assay kit (Molecular Probes, Eugene, Oreg.). The assay comprises the use of Fluorescein-labeled Micrococcus lysodeikticus bacterial cells as a fluorescent substrate of lysozyme. In this Gram positive bacterium, the peptidoglycan layer is directly accessible to lysozyme, and has been Fluorescein-labeled such that fluorescence is naturally quenched. Upon lysozyme hydrolysis, quenching is relieved and fluorescein is released in a quantity that is proportional to lysozyme activity. The following experimental protocol was used.\n(§4) A typical 100 μl reaction consisted of 25 μl of lysozyme solution (10 units for chicken lysozyme or 50 units for human lysozyme, dissolved in deionized water), 25 μl of the test protein solution and 50 μl of a suspension of fluorescein-labeled Micrococcus lysodeikticus (50 μg/ml). The reaction was incubated for 45 minutes at 37° C. and the fluorescence was measured (λexc.=485 nm; λemi.=520 nm) using a fluorescence multi-well plate reader model FLx800 (Bio TEK instruments, Winoosky, Vt.) equipped with KC junior data acquisition software (Bio TEK Instruments, Winoosky, Vt.). Each experimental point was expressed as the mean and standard deviation corresponding to the reading of three independent wells. Wells containing 50 μl of deoinized water and […] of Fluorescein-labeled Micrococcus lysodeikticus suspension were used as a blank. Two fold serial dilutions of test protein were used to vary the concentration of the test protein from 83.5 to 1.3 μg/well."}, "chicken lysozyme [6]": {"biological_target": "T1, chicken lysozyme", "assay": "Lysozyme inhibition assay (EnzCheck, fluorescein-labeled Micrococcus lysodeikticus)", "type": "biochemical", "description": "as §3, §4"}, "[7]": {"biological_target": "T2, LIZIPAINA (chicken lysozyme) (Gallus gallus, UniProt P00698)", "T2 construct": "natural hen egg-derived chicken lysozyme used in commercially available medicinal preparations; purchased Boehringer Ingelheim, San Cugat del Vallés, Spain", "T2 sequence (P00698 19-147)": "as above", "assay": "Inhibition of commercial chicken lysozyme preparation (EnzCheck)", "type": "biochemical", "conditions": "lysozyme 4 μg/ml; molar ratio 1:5 to 1:50 GST-Tp17, 1:16 to 1:160 Tp17-HIS", "description": "(§5) Chicken Lysozyme is a potent antimicrobial enzyme active against both bacteria and viruses. Commercial preparations that contain Lysozyme as an active agent include, but are not limited to, LIZIPAINA® (Boehringer Ingelheim, San Cugat del Vallés, Spain) and LISOZIMA CHIESI (CHIESI ESPAÑA SA, Barcelona, Spain). […] To test this hypothesis, one tablet of each drug, LIZIPAINA® (containing 5 mg chicken lysozyme per tablet) and LISOZIMA CHIESI (containing 250 mg chicken lysozyme per tablet), was resuspended in deionized water (The Millipore Corporation, Bedford, Mass., USA) to adjust the Lysozyme concentration to 4 μg/ml. These samples were then incubated in absence or in presence of increasing amount of either GST-Tp17 or Tp17-HIS. In this experiment the molar ratio between chicken lysozyme and its cognate inhibitor was varied from 1:5 to 1:50 for GST-Tp17 and from 1:16 to 1:160 for Tp17-HIS. After an incubation period of 5 minutes at 20° C. the samples were assayed for lysozyme enzymatic activity using the EnzCheck® Lysozyme assay kit (E-22013; Molecular Probes Inc., Eugene, Oreg., USA) as recommended by the supplier guidelines."}, "[8]": {"biological_target": "T3, LISOZIMA CHIESI (chicken lysozyme) (Gallus gallus, UniProt P00698)", "T3 construct": "natural hen egg-derived chicken lysozyme used in commercially available medicinal preparations; purchased CHIESI ESPAÑA SA, Barcelona, Spain", "T3 sequence (P00698 19-147)": "as above", "assay": "Inhibition of commercial chicken lysozyme preparation (EnzCheck)", "type": "biochemical", "conditions": "lysozyme 4 μg/ml; molar ratio 1:5 to 1:50 GST-Tp17", "description": "as §5"}, "[9]": {"conditions": "mature protein; cited from earlier work"}, "[10]": {"system": "Micrococcus lysodeikticus", "assay": "Antibacterial activity of lysozymes in presence or absence of Tp17 (EnzCheck Lysozyme assay)", "type": "biochemical", "conditions": "1 unit human lysozyme or 230 units rLysozyme; 10 μg GST-Tp17 or Tp17-HIS", "description": "as §3\nIn that context, we compared the antibacterial activity of human lysozyme (Ventria Bioscience, Sacramento, Calif., USA) and rLysozyme™ using the EnzCheck Lysozyme assay (E-22013; Molecular Probes, Eugene, Oreg.). We first determined that under the manufacturer's prescribed assay conditions, 1 unit of human lysozyme produced the same intensity of fluorescence as 230 units of rLysozyme™. Next, we measured the fluorescence intensity of either 1 unit of human lysozyme or 230 units of rLysozyme™, in the presence or absence of 10 μg of either GST-Tp17 or Tp17-HIS. […]"}, "[11]": {"conditions": "83.5 to 1.3 μg/well test protein"}},
  "note": "Entries after “also recorded” stand apart in the source; their conditions may differ.",
  "data": [
    {"molecule": "natural human breast milk lysozyme: purified natural human breast milk lysozyme (L-6394; Sigma-Aldrich)", "values": [
      {"measurement": "specific activity", "setting": "[1]", "value": "101,000 units/mg protein"}
    ]},
    {"molecule": "recombinant human lysozyme: purified recombinant human lysozyme from transgenic rice (159-53LZ-90P; Ventria Bioscience)", "values": [
      {"measurement": "specific activity", "setting": "[1]", "value": "187,000 units/mg protein"}
    ]},
    {"molecule": "sAPPα: longer recombinant fragment of β-APP derived from the APP695 isoform (Sigma S9564)", "values": [
      {"measurement": "binding of POD-labeled huLYS to immobilized protein", "setting": "human lysozyme [2]", "value": "binding; also recorded: bound"}
    ]},
    {"molecule": "GST-Tp17: recombinant fusion protein of GST and Treponema pallidum 17 kDa antigen Tp17 (SEQ ID NO:29)", "values": [
      {"measurement": "binding to human lysozyme", "setting": "human lysozyme [3]", "value": "detected binding"},
      {"measurement": "binding to chicken lysozyme", "setting": "chicken lysozyme [4]", "value": "detected binding"},
      {"measurement": "inhibition of acetyl muramidase activity of human lysozyme", "setting": "human lysozyme [5]; as little as 1.3 μg/well test protein, 50 units lysozyme, 45 min 37° C", "value": "> 85", "unit": "%"},
      {"measurement": "inhibition of acetyl muramidase activity of chicken lysozyme", "setting": "chicken lysozyme [6]; as little as 1.3 μg/well test protein, 10 units lysozyme, 45 min 37° C", "value": "> 85", "unit": "%"},
      {"measurement": "inhibition of enzymatic antibacterial activity of LIZIPAINA", "setting": "[7]", "value": "strongly inhibited"},
      {"measurement": "inhibition of enzymatic antibacterial activity of LISOZIMA CHIESI", "setting": "[8]", "value": "strongly inhibited"}
    ]},
    {"molecule": "B1", "values": [
      {"measurement": "binding to human lysozyme", "setting": "human lysozyme [3]", "value": "No signal was detected"},
      {"measurement": "binding to chicken lysozyme", "setting": "chicken lysozyme [4]", "value": "No signal was detected"},
      {"measurement": "inhibitory effect on human lysozyme acetyl muramidase activity", "setting": "human lysozyme [5]; [11]", "value": "did not exert any inhibitory effect"},
      {"measurement": "inhibitory effect on chicken lysozyme acetyl muramidase activity", "setting": "chicken lysozyme [6]; [11]", "value": "did not exert any inhibitory effect"}
    ]},
    {"molecule": "B2", "values": [
      {"measurement": "pI", "setting": "[9]", "value": 5.51}
    ]},
    {"molecule": "B3", "values": [
      {"measurement": "susceptibility of antibacterial activity to inhibition by GST-Tp17 or Tp17-HIS", "setting": "[10]", "value": "strongly inhibited"}
    ]},
    {"molecule": "B4", "values": [
      {"measurement": "inhibition of enzymatic antibacterial activity of LIZIPAINA", "setting": "[7]", "value": "strongly inhibited"}
    ]}
  ]
}
